Results from patent publication US20060223096A1 (GLYCART BIOTECHNOLOGY, published 2006).

Target: T1, human melanoma chondroitin sulfate proteoglycan (MCSP) (human, UniProt Q6UVK1 30-2322)
T1 construct: whole, on cells; also called HMW-MAA; high molecular weight-melanoma-associated antigen
Assay: flow cytometry on A375 human melanoma cells
Description: The purified, monomeric humanized antibody variants were tested for binding to the human HMW-MAA/MCSP antigen on the A375 human melanoma cell line, using a flow cytometry-based assay. 200,000 cells (in 180 μl FACS buffer (PBS containing 2% FCS and 5 mM EDTA) were transferred to 5 ml polystyrene tubes and 20 μl 10 fold concentrated anti-MCSP antibody (primary antibody) samples (1-5000 ng/ml final concentration) or PBS only were added. After gently mixing the samples, the tubes were incubated at 4° C. for 30 min in the dark. Subsequently, samples were washed twice with FACS buffer and pelleted at 300 g for 3 min. Supernatant was aspirated off and cells were taken up in 50 μl FACS buffer and 2 μl secondary antibody (anti-Fc-specific F(ab′)2-FITC fragments (Jackson Immuno Research Laboratories, USA)) was added and the tubes were incubated at 4° C. for 30 min. Samples were washed twice with FACS buffer and taken up in 500 μl of FACS buffer for analysis by Flow Cytometry. Binding was determined by plotting the geometric mean fluorescence against the antibody concentrations.

T1 sequence (Q6UVK1 30-2322): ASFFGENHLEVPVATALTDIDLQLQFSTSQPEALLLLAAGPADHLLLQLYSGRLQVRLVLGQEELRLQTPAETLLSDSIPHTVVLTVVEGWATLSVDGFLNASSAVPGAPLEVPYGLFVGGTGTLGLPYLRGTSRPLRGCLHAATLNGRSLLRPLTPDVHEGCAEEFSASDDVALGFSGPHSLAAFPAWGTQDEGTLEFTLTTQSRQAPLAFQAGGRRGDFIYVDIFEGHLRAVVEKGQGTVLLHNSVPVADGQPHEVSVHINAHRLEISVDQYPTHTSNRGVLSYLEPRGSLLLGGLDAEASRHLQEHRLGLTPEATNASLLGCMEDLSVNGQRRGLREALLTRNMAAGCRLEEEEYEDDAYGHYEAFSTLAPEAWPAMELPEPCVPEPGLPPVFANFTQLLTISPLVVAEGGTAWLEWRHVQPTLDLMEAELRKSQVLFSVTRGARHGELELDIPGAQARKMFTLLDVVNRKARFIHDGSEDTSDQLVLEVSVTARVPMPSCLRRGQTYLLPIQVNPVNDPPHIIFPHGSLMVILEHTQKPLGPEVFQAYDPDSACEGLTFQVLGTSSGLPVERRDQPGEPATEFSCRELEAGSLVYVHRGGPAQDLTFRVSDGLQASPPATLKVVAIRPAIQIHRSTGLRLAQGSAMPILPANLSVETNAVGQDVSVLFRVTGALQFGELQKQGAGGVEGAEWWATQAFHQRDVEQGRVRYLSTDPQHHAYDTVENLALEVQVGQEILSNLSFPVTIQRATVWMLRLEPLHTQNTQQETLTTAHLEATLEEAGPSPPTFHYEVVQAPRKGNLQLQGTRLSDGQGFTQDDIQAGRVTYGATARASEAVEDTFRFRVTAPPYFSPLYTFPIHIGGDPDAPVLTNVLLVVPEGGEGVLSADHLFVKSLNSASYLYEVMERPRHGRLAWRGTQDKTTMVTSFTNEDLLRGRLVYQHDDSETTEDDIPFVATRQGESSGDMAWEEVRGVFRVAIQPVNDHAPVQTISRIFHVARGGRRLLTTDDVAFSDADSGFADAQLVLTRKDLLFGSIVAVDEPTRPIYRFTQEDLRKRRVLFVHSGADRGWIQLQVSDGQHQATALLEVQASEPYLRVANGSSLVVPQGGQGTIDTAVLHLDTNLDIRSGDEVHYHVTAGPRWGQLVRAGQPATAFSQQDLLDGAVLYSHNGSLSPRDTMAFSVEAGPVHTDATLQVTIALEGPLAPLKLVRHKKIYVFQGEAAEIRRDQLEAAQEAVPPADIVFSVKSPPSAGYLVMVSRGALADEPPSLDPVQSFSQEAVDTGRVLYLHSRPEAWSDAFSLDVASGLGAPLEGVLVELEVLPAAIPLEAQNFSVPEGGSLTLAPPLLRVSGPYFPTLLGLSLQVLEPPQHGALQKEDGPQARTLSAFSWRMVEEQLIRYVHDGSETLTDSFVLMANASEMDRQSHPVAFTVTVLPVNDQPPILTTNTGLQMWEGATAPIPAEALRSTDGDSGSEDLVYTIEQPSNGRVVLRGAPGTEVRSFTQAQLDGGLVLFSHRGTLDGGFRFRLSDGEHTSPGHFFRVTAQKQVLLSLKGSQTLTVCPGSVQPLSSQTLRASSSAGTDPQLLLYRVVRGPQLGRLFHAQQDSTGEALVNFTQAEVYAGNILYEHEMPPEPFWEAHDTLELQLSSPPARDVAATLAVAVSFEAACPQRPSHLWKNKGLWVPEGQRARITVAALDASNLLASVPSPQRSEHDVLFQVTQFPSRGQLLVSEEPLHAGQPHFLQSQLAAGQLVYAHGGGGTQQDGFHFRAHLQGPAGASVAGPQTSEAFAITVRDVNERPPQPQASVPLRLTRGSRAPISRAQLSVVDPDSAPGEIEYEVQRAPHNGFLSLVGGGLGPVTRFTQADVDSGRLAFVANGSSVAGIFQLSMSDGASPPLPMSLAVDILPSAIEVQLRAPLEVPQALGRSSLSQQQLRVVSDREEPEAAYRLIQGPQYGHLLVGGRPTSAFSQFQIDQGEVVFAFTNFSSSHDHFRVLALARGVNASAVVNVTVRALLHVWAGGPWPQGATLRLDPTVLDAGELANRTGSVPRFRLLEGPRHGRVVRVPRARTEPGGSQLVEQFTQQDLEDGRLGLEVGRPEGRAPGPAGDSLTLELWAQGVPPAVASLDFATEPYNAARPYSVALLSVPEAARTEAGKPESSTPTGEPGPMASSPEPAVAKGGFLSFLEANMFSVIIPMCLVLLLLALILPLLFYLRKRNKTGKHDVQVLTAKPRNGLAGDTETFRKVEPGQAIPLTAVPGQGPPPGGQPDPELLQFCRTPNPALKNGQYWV

| Binder | binding result |
| --- | --- |
| M-HLE1 heavy chain paired with the light chain construct M-KV4 (antibody, V domains shown, also called M-HLE1/M-KV4) VH: EVQLVESGGGLVKPGGSLRLSCAASGFTFSNYWMNWVRQAPGKGLEWVGEIRLKSNNFGRYYAQKFQERVTITRDMSTSTAYMELSSLRSEDTAVYYCAAYGNYVGHYFDHWGQGTTVTVSS VL: DIQLTQSPSFLSASVGDRVTITCKASQNVDTNVAWYQQKPGKAPEPLLFSASYRYTGVPSRFSGSGSGTEFTLTISSLQPEDFATYYCQQYNSYPLTFGGGTKVEIKR | binds |
| M-HLC heavy chain combined with the light chain construct M-KV3 (antibody, V domains shown, also called M-HLC/M-KV3) VH: QVQLVQSGAEVKKPGASVKVSCKASGYTFTNYWMNWVRQAPGQGLEWMGEIRLKSNNFGRYYAESVKGRVTITRDTSMSTAYMELSSLRSEDTAVYYCAAYGNYVGHYFDHWGQGTTVTVSS VL: DIQLTQSPSFLSASVGDRVTVTCKASQNVDTNVAWYQQKPGKAPEPLLFSASYRYTGVPSRFSGSGSGTEFTLTISSLQPEDFATYYCQQYNSYPLTFGGGTKVEIKR | no binding (tested: 1-5000 ng/ml final concentration) |
| M-HLB heavy chain combined with the light chain construct M-KV3 (antibody, V domains shown, also called M-HLB/M-KV3) VH: QVQLVQSGAEVKKPGASVKVSCKASGYTFTNYWMNWVRQAPGQGLEWMGEIRLKSNNFGRYYAQKFQGRVTITRDTSMSTAYMELSSLRSEDTAVYYCAAYGNYVGHYFDHWGQGTTVTVSS VL: DIQLTQSPSFLSASVGDRVTVTCKASQNVDTNVAWYQQKPGKAPEPLLFSASYRYTGVPSRFSGSGSGTEFTLTISSLQPEDFATYYCQQYNSYPLTFGGGTKVEIKR | no binding (tested: 1-5000 ng/ml final concentration) |
| M-HLD heavy chain paired with the M-KV9 light chain (antibody, V domains shown, also called M-HLD/M-KV9) VH: QVQLVQSGAEVKKPGASVKVSCKASGFTFSNYWMNWVRQAPGQGLEWMGEIRLKSNNFGRYYAESVKGRVTITRDTSMSTAYMELSSLRSEDTAVYYCAAYGNYVGHYFDHWGQGTTVTVSS VL: DIQLTQSPSFLSASVGDRVTITCKASQNVDTNVAWYQQKPGQAPRPLIYSASYRYTGVPSRFSGSGSGTEFTLTISSLQPEDFATYYCQQYNSYPLTFGGGTKVEIKR | binds |
| M-HLE2 heavy chain paired with the light chain construct M-KV4 (antibody, V domains shown, also called M-HLE2/M-KV4) VH: EVQLVESGGGLVKPGGSLRLSCAASGFTFSNYWMNWVRQAPGKGLEWVGEIRLKSNNFGRYYAESVKGRVTITRDMSTSTAYMELSSLRSEDTAVYYCAAYGNYVGHYFDHWGQGTTVTVSS VL: DIQLTQSPSFLSASVGDRVTITCKASQNVDTNVAWYQQKPGKAPEPLLFSASYRYTGVPSRFSGSGSGTEFTLTISSLQPEDFATYYCQQYNSYPLTFGGGTKVEIKR | binds |
| M-KV3 light chain coexpressed with murine 225.28S heavy chain (mVH) (antibody, V domains shown, The VL entry ends in KRT; also called mVH/M-KV3) VH: QVKLQQSGGGLVQPGGSMKLSCVVSGFTFSNYWMNWVRQSPEKGLEWIAEIRLKSNNFGRYYAESVKGRFTISRDDSKSSAYLQMINLRAEDTGIYYCTSYGNYVGHYFDHWGQGTTVTVSS VL: DIQLTQSPSFLSASVGDRVTVTCKASQNVDTNVAWYQQKPGKAPEPLLFSASYRYTGVPSRFSGSGSGTEFTLTISSLQPEDFATYYCQQYNSYPLTFGGGTKVEIKR | binds |
| M-HLA heavy chain combined with the light chain construct M-KV3 (antibody, V domains shown, also called M-HLA/M-KV3) VH: QVQLVQSGAEVKKPGASVKVSCKASGYTFTNYWMNWVRQAPGQGLEWMGEIRLKSNNFGRYYAQKFQGRVTMTRDTSTSTVYMELSSLRSEDTAVYYCARYGNYVGHYFDHWGQGTTVTVSS VL: DIQLTQSPSFLSASVGDRVTVTCKASQNVDTNVAWYQQKPGKAPEPLLFSASYRYTGVPSRFSGSGSGTEFTLTISSLQPEDFATYYCQQYNSYPLTFGGGTKVEIKR | no binding (tested: 1-5000 ng/ml final concentration) |
| M-HHB heavy chain coexpressed with murine 225.28S light chain (mVL) (antibody, V domains shown, also called M-HHB/mVL) VH: EVQLVESGGGLVKPGGSLRLSCAASGFTFSNYWMNWVRQAPGKGLEWVGEIRLKSNNFGRYYAESVKGRFTISRDDSKNTLYLQMNSLKTEDTAVYYCTSYGNYVGHYFDHWGQGTTVTVSS VL: DIELTQSPKFMSTSVGDRVSVTCKASQNVDTNVAWYQQKPGQSPEPLLFSASYRYTGVPDRFTGSGSGTDFTLTISNVQSEDLAEYFCQQYNSYPLTFGGGTKLEIK | binds |
| humanized M-HLG/M-KV9 construct of the 225.28S antibody (antibody, V domains shown, also called M-KV9 together with M-HLG) VH: EVQLVESGGGLVQPGGSLRLSCAASGFTFSNYWMNWVRQAPGKGLEWVAEIRLKSNNFGRYYAASVKGRFTISRDDSKNTLYLQMNSLKTEDTAVYYCTTYGNYVGHYFDHWGQGTTVTVSS VL: DIQLTQSPSFLSASVGDRVTITCKASQNVDTNVAWYQQKPGQAPRPLIYSASYRYTGVPSRFSGSGSGTEFTLTISSLQPEDFATYYCQQYNSYPLTFGGGTKVEIKR | binds |
| M-KV12 light chain combined with the M-HLG heavy chain (antibody, V domains shown, also called M-HLG/M-KV12) VH: EVQLVESGGGLVQPGGSLRLSCAASGFTFSNYWMNWVRQAPGKGLEWVAEIRLKSNNFGRYYAASVKGRFTISRDDSKNTLYLQMNSLKTEDTAVYYCTTYGNYVGHYFDHWGQGTTVTVSS VL: DIQLTQSPSFLSASVGDRVTITCKASQNVDTNVAWYQQKPGQAPRPLIYSASYLQSGVPSRFSGSGSGTEFTLTISSLQPEDFATYYCQQYNSYPLTFGGGTKVEIKR | binds |
| M-KV6 light chain paired with the M-HHB heavy chain (antibody, V domains shown, also called M-HHB/M-KV6) VH: EVQLVESGGGLVKPGGSLRLSCAASGFTFSNYWMNWVRQAPGKGLEWVGEIRLKSNNFGRYYAESVKGRFTISRDDSKNTLYLQMNSLKTEDTAVYYCTSYGNYVGHYFDHWGQGTTVTVSS VL: DIQLTQSPSFLSASVGDRVTITCKASQNVDTNVAWFQQRPGQSPRRLIYSASYRYTGVPSRFSGSGSGTEFTLTISSLQPEDFATYYCQQYNSYPLTFGGGTKVEIKR | no binding (tested: 1-5000 ng/ml final concentration) |
| M-KV5 light chain paired with the M-HHB heavy chain (antibody, V domains shown, also called M-HHB/M-KV5) VH: EVQLVESGGGLVKPGGSLRLSCAASGFTFSNYWMNWVRQAPGKGLEWVGEIRLKSNNFGRYYAESVKGRFTISRDDSKNTLYLQMNSLKTEDTAVYYCTSYGNYVGHYFDHWGQGTTVTVSS VL: DIQLTQSPSFLSASVGDRVTITCKASQNVDTNVAWYLQKPGQSPQLLIYSASYRYTGVPSRFSGSGSGTEFTLTISSLQPEDFATYYCQQYNSYPLTFGGGTKVEIKR | no binding (tested: 1-5000 ng/ml final concentration) |

The next lines start with the values.

| binding result | Binder |
| --- | --- |
| binds | M-KV7 light chain paired with the M-HHB heavy chain (antibody, V domains shown, also called M-KV7 antibody; M-HHB/M-KV7) VH: EVQLVESGGGLVKPGGSLRLSCAASGFTFSNYWMNWVRQAPGKGLEWVGEIRLKSNNFGRYYAESVKGRFTISRDDSKNTLYLQMNSLKTEDTAVYYCTSYGNYVGHYFDHWGQGTTVTVSS VL: DIQLTQSPSFLSASVGDRVTITCKASQNVDTNVAWYQQKPGKAPKPLIYSASYRYTGVPSRFSGSGSGTEFTLTISSLQPEDFATYYCQQYNSYPLTFGGGTKVEIKR |
| binds | M-KV9 light chain combined with the M-HHB heavy chain (antibody, V domains shown, also called M-KV9 with M-HHB; M-HHB/M-KV9) VH: EVQLVESGGGLVKPGGSLRLSCAASGFTFSNYWMNWVRQAPGKGLEWVGEIRLKSNNFGRYYAESVKGRFTISRDDSKNTLYLQMNSLKTEDTAVYYCTSYGNYVGHYFDHWGQGTTVTVSS VL: DIQLTQSPSFLSASVGDRVTITCKASQNVDTNVAWYQQKPGQAPRPLIYSASYRYTGVPSRFSGSGSGTEFTLTISSLQPEDFATYYCQQYNSYPLTFGGGTKVEIKR |
| binds | M-KV4 light chain paired with the M-HHB heavy chain (antibody, V domains shown, also called M-HHB/M-KV4) VH: EVQLVESGGGLVKPGGSLRLSCAASGFTFSNYWMNWVRQAPGKGLEWVGEIRLKSNNFGRYYAESVKGRFTISRDDSKNTLYLQMNSLKTEDTAVYYCTSYGNYVGHYFDHWGQGTTVTVSS VL: DIQLTQSPSFLSASVGDRVTITCKASQNVDTNVAWYQQKPGKAPEPLLFSASYRYTGVPSRFSGSGSGTEFTLTISSLQPEDFATYYCQQYNSYPLTFGGGTKVEIKR |
| binds | M-KV10 light chain combined with the M-HLG heavy chain (antibody, V domains shown, also called M-HLG/M-KV10) VH: EVQLVESGGGLVQPGGSLRLSCAASGFTFSNYWMNWVRQAPGKGLEWVAEIRLKSNNFGRYYAASVKGRFTISRDDSKNTLYLQMNSLKTEDTAVYYCTTYGNYVGHYFDHWGQGTTVTVSS VL: DIQLTQSPSFLSASVGDRVTITCRASQNVDTNLAWYQQKPGQAPRPLIYSASYRYTGVPSRFSGSGSGTEFTLTISSLQPEDFATYYCQQYNSYPLTFGGGTKVEIKR |
| binds | M-HLG heavy chain paired with the light chain construct M-KV4 (antibody, V domains shown, also called M-HLG/M-KV4) VH: EVQLVESGGGLVQPGGSLRLSCAASGFTFSNYWMNWVRQAPGKGLEWVAEIRLKSNNFGRYYAASVKGRFTISRDDSKNTLYLQMNSLKTEDTAVYYCTTYGNYVGHYFDHWGQGTTVTVSS VL: DIQLTQSPSFLSASVGDRVTITCKASQNVDTNVAWYQQKPGKAPEPLLFSASYRYTGVPSRFSGSGSGTEFTLTISSLQPEDFATYYCQQYNSYPLTFGGGTKVEIKR |
| binds | M-HHA heavy chain coexpressed with murine 225.28S light chain (mVL) (antibody, V domains shown, also called M-HHA/mVL) VH: EVQLVESGGGLVKPGGSLRLSCAASGFTFSNYWMNWVRQAPGKGLEWVGEIRLKSNNFGRYYAASVKGRFTISRDDSKNTLYLQMNSLKTEDTAVYYCTTYGNYVGHYFDHWGQGTTVTVSS VL: DIELTQSPKFMSTSVGDRVSVTCKASQNVDTNVAWYQQKPGQSPEPLLFSASYRYTGVPDRFTGSGSGTDFTLTISNVQSEDLAEYFCQQYNSYPLTFGGGTKLEIK |
| binds | M-HHC heavy chain coexpressed with murine 225.28S light chain (mVL) (antibody, V domains shown, also called M-HHC/mVL) VH: EVQLVESGGGLVKPGGSLRLSCAASGFTFSNYWMNWVRQAPGKGLEWVANIRLKSNNFGRYYAESVKGRFTISRDDSKNTLYLQMNSLKTEDTAVYYCTSYGNYVGHYFDHWGQGTTVTVSS VL: DIELTQSPKFMSTSVGDRVSVTCKASQNVDTNVAWYQQKPGQSPEPLLFSASYRYTGVPDRFTGSGSGTDFTLTISNVQSEDLAEYFCQQYNSYPLTFGGGTKLEIK |
